# Source: patent publication US8357523B2, “Beta-glucosidase variant enzymes and related polynucleotides” (Codexis, Inc., priority 2009, dated 2013)
# B1: Variant No. 264 (protein)
# chain: SAAIAQEGAAPAAMLHPEKWPRPATQRLIDPAVEKRVDALLKQLSVEEKVGQVIQGDIGTITPEDLRKYPLGSILAGGDSGPNGDDRAPPKEWLDLADAFYRVSLEKRPGHTPIPVLFGIDAVHGHGNIGSATIFPHNIALGMTRDPELLRRIGEVTAEEMAATGIDWTFAPALSVVRDDRWGRTYEGFSEDPEIVASYSAAIVEGVQGKYGSKDFMAPGRAVACAKHFLADGGTDQGRDQGDARISEDELIRIHNAGYPPAIDAGVLTVMASFSSWQGIKHHGHKQLLTDVLKGQMGFNGFIVGDWNAHDQVPGCTKFNCPTSLIAGLDMYMAADSWKQLYENTLAQVKDGTIPMARLDDAVRRILRVKVLAGLFEKPAPKDRPGLPGLETLGSPEHRAVGREAVRKSLVLLKNDKGTLPLSPKARVLVAGDGADNIGKQSGGWTISWQGTGNRNDEFPGATSILGGIRDAVADAGGSVEFDVAGQYKTKPDVAIVVFGEEPYAEFRGDVETLEYQPDQKQDLTLLKKLKDQGIPVVAVFLSGRPMWVNPELNASDAFVAAWLPGTEGGGVADVLFTDKAGKVQHDFAGKLSYSWPRTAAQTTVNRGDADYNPLFAYGYGLTYKDKSKVGTLPEESGVPAEARQN
# Key:
# Assay type in all cases: biochemical
# [1] = High throughput cellobiose assay: fold improvement in cellobiase activity of CelA variants over a control enzyme (Tables 2A-2D, 3, 5, 6, 7); details: assay of Example 7
# [2] = Activity profile at different temperatures and pH using cellobiose (10 g/L) as substrate
# Experimental: β-glucosidase activity was also determined using a cellobiose assay, which used cellobiose as substrate. In a total volume of 100 μL, 25 μL clear media supernatant containing CelA enzyme was added to 10 g/L cellobiose (Fluka Cat. No. 22150, Sigma-Aldrich, Inc., St. Louis, Mo.) in 100 mM sodium phosphate buffer (pH 6-7) or sodium acetate buffer (pH 5-5.5). The reaction was incubated at 45-70° C. for an appropriate time (25 minutes to overnight depending on the enzyme concentration) while shaking. Glucose production was determined using an enzymatic glucose assay (K-GLUC, Megazyme, Ireland). 10 μl of each reaction was added to 190 μl GOPOD reagent (supplied as part of the K-GLUC assay kit). The reaction was incubated at 45° C. for 20 minutes and the absorbance of the solution was measured at 510 nm. The GOPOD reagent contains 50 mM Potassium phosphate buffer pH7.4, 0.011M p-hydroxybenzoic acid, 0.008% w/v sodium azide, glucose oxidase (>12,000 U/L), peroxidase (>650 U/L) and 80 mg/L 4-aminoantipyrine. The glucose oxidase enzyme in the reagent reacts with any glucose present in the sample and produces hydrogen peroxide which then reacts with the 4-aminoantipyrine to produce a quinoneimine dye in quantities proportionate with the amount of glucose present and can be measured spectrophotometrically at 510 nm. Detectable β-glucosidase activity was observed under high throughput screening conditions (i.e., pH 7, 50° C.).
# The native CelA activity profile was investigated at different temperatures (40-55° C.) and pH (5.0-8.0) using cellobiose (10 g/L) as a substrate. The experimental and analytical procedures are described in Example 5.
# The activity profiles for Variant Nos. 264, 366, 391, 463, and 529 were determined at different temperatures and pH using cellobiose (10 g/L) as a substrate. The experimental and analytical procedures are described in Example 5, incubating the variant with cellobiose at temperatures in the range of 45-80. The results are depicted in FIGS. 7-11. […] The temperature and pH profile for this variant is depicted in FIG. 7. […] The temperature and pH profile for this variant is depicted in FIG. 8. […] The temperature and pH profile for this variant is depicted in FIG. 9. […] (with the pH 6 optimum determined by extrapolation). The temperature and pH profile for this variant is depicted in FIG. 10. […] The temperature and pH profile for this variant is depicted in FIG. 11.
# [3] = Saccharification of microcrystalline cellulose by Trichoderma reesei whole cellulase supplemented with β-glucosidase; details: 1 g/L TRWC alone or 25% of TRWC substituted with the β-glucosidase; 200 g/L Avicel, 100 g/L xylose, pH5.5, 55° C., 48 hours
# Description: FIG. 12 illustrates the impact of supplementing a commercially available Trichoderma reesei whole cellulose (“TRWC”) mixture with a CelA variant of the present invention. Compositions containing TRWC were supplemented with β-glucosdiases CelA Variant No. 264 (“Cel var1”), CelA Variant No. 366 (“Cel var2”), and a commercially available Aspergillus niger β-glucosidase (“ANBG”) in a ratio of 3:1 TRWC to β-glucosidase. The effectiveness of each composition at hydrolyzing microcrystalline cellulose was evaluated as described in Example 15. A plot of glucose and cellobiose concentration (g/L) vs. cellulase composition is depicted. The control composition was TRWC with no added β-glucosidase.
# The impact of adding a CelA variant of the present invention to commercially available cellulose mixtures and microcrystalline cellulose, Avicel™, was evaluated. In the test reactions, 1 g/L Trichoderma reesei whole cellulose (“TRWC”, Sigma catalog #C85456-10KU (ATCC 26921)) was used to convert 200 g/L of the microcrystalline cellulose Avicel™ (200 mM Sodium acetate; 100 g/L xylose, pH5.5 and 55° C.). The amount of glucose was measured after 48 hours of reaction. As a comparison, 25% of the TRWC was replaced with a β-glucosidase: Variant No. 264 (“Cel var1”), Variant No. 366 (“Cel var2”), or with the commercially available cellobiase, Aspergillus niger beta-glucosidase (“ANBG”, Sigma catalog #49291-1G). […]
molecule,measurement,setting,value
B1,"activity (e.g., thermoactivity) over the wildtype A. irakense β-glucosidase",[1],improved activity
same,pH of optimum activity,[2],6 pH
same,temperature of optimum activity,[2],58 °C
same,cellobiose and glucose combined yielded in saccharification reaction,[3],comparable results
